From the nanobody polyreactivity screen of Harvey et al. (2022)

Test: yeast display, Sf9 membrane polyspecificity reagent, FACS + sequencing; frameworks hold sequencing errors
Outline: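 Nanobodies from a synthetic yeast display library (Saccharomyces cerevisiae BJ5465), induced 36–48 hours with galactose, were stained 1 hour at 4 °C with 10% biotinylated, detergent-solubilized Sf9 membrane reagent, enriched on streptavidin microbeads, then FACS-sorted. Anti-HA (expression) and streptavidin (reagent binding) fluorescence set low and high (top ~1%) gates. Polyreactivity labels come from the gate of origin. Genes were colony-PCR amplified, MiSeq 2 × 250 sequenced and filtered by CDR length.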

Row | Sequence | polyreactivity (PSR sort gate)
1 | QVHLVESGGGLLQAGGSLRLSCAASGSTFSINGMGWYRQAPGKERELVAAITWRGTRTYYADSVKGRFTISRDNAKNTVYLEMNSLKPEVTAVYYCAATGSGEASFYYWGQGTQVTVSS | high polyreactivity
2 | QVHLVESGGGLVHAGGSLRLSCAASGSIFPYYAMGWYRQAPGKETELVAAISRSGGSTYYADSVKGRFTISRDYAKNTVYLQMNSLKPDDTAVYYCAADYARYVRKTRYGSWGKGTQVTVSS | high polyreactivity
3 | QVHLVESGGGLVKAGGSLRISCAASGRTFVCYAMGCYRPAPGKERELVAAISSGGSTNYADSVKGRFTISRDNAKNTVYLLMICLKPEDTAVYYCNRRSYQRGWHWARGRYGFWGQGTQVTVSS | high polyreactivity
4 | QVHLVESGGGLVKAGGSLRLSCAASGITFGSYAMGWYRQAPGKERELVAAIDTSGDDTYYADSVKGRFTISRDNAKNTVYLQMNSLKPEDTAVYYCAADFPSAEVDYWGQGTQVTVSS | low polyreactivity
5 | QVHLVESGGGLVKAGGSLRLSCAASGLIFTQYSMGWYRQAPGTERELVAGITSSGGSTNYADSVKGRFTISRDNAKNTVYLQMNSLKPEDTAVYYCATRLGVLYDYWGQGTQVTVSS | low polyreactivity
6 | QVHLVESGGGLVKAGGSLRLSCAASGSTFYANAMGWYRQAPGKEREFVASITWSGGSTYYADSVKGRFTISRDNAKNTVYLQMNSLKPEDTSVYYCAANIGHNGFDYWGQGTQVNVSS | low polyreactivity
7 | QVHLVESGGGLVKAGGSLRLSCAASGSTKNYVMGWYRQAPGKERELVAAISRGSSTYYADSVKGRFTISRDNAKNTVYLQMNSLKPEDTAVYYCAARGPWQAPYDYWGQGTQVTVSS | high polyreactivity
8 | QVHLVESGGGLVKAGGSLRLSCAASGSTKYYVMGWYRQAPGKERELVAAISRGSSTYYADSVKGRFTISRDNAKNTVYLQMNSLKPEDTAVYYCAARGPWQAPYDYWGQGTQVTVSS | high polyreactivity
9 | QVHLVESGGGLVKAGGSLRLSCAASGSTSTLYAMGWYRQAPGKERELVAAISKSGGRTYYADSVKGRFTNSRDNAKNTVYLQMNSLKPEDTAVYYCNTVPGRYRTFDYWGQGTQVTVSS | high polyreactivity
10 | QVHLVESGGGLVLAPASLRLSSPASGHNQGIYAMGWYRQAPGKEREFVAAISRGGGSTYYADSVKGRFTISRDNAKNTVYLQMNSLNPEDTAVYYCNAVRDRYGVFPYYYWGQGTQVTVSS | high polyreactivity
11 | QVHLVESGGGLVPAGGSLRLSCPASGSIFYEYAMGWYRQPPGKERELVAAITVTSGSTYYADSVKGRFTISRDNAKNTVYLQMNSLKPEDTAVYYCASRIYHTYRFYYWGQGTQVTVSS | low polyreactivity
12 | QVHLVESGGGLVQAGASHRLSCAASGSISKSYAMGWYRQAPGKERELVAAISWRGGSTYADSVKGRFTISRDNAKNTVYLQMNSLKPEDTAVYYCAATNYGTFWVGQSERYDYWGQGTQVNVSS | low polyreactivity
13 | QVHLVESGGGLVQAGCSLRLRSAASGRIFSRNAMGRYRQAPGKERELVAAISTGGTTNYADSVKGRFTISRDNANNTVYLQMNSLKPEDTALYYCNAGLLRRRMDYWGQGTQVTVSS | high polyreactivity
14 | QVHLVESGGGLVQAGCSLRLSCAASGSTIYRYAMGWYRQAPGKERELVASINGGDDTYYADSVKGRFTISRDNAKNNVYLQMTSLKPEDTAVYYCAAEVYGSWPFDTYYYWGQGTQVTVSS | high polyreactivity
15 | QVHLVESGGGLVQAGGILRLSCAAFGFTFKSYAMVWYIQAPGKERELVAGITSSGGGTYYADSVKGRFTISRDNAKNTVYLQMNSLKPEDTAVYYCNTYSYLFSRYGYWGQGTQVTVSS | high polyreactivity
16 | QVHLVESGGGLVQAGGILRLSCAASGFIFVRNAMGWYRQERGKEREFVAAINSSGGRTYYADSVKGRFTISRDNAKNTVYLQMNSLKPEDTAVYYCAARSQPKKFYYWGQGTQVTVSS | high polyreactivity
17 | QVHLVESGGGLVQAGGILRLSCAASGFTFTSNAMGWYRQAPGKEREFVADISNIGGDTTYADSVKGRFTISRDNAKNTVYLQMNSLKPEDTAVYYCNADFAFIENDYWGQGTQVTVSS | low polyreactivity
18 | QVHLVESGGGLVQAGGILRLSCPASGSTFVYYAMVWYRQAPGKERELVAAISRSGGNTYYAYSVKGRFTISRDNAKNTVYLQMNSLKQEDTAVYYCAARSYGVQYYYWGQGTQVTVSS | high polyreactivity
19 | QVHLVESGGGLVQAGGRLRLSCAASGFTLRYYAMGWYRQAPGKESELVATINRSGASTYYADTVKGRFTISRDNAKNTVYLQMNSQKPEDTAVYYCKTATSRAYRYDYWGQGTQVTVSS | low polyreactivity
20 | QVHLVESGGGLVQAGGRLRLSCAASGGTFYYNAMGRYRHATGKERELVAGITQSGGNTYYADSVKGRFTISRDNAKNTVYLHMNSLKPEDTVVYYCAARIRGTWKYGYWGQGTQVTVSS | low polyreactivity
21 | QVHLVESGGGLVQAGGSHRLRCAASGRIFSGYAKGRYRQAPGKERELVAAITQSGGSTSYADSVKGRFTISRDNAKNTVYLQMIRLKPEDTAVYYCNVDDSTWIGAYRRYDYWGQGTQVTVSS | low polyreactivity
22 | QVHLVESGGGLVQAGGSIRLSCAASGRTFAYNVKGWYIQAPGKVREVVAGISFGAGSTYYADSVKGRFTISRDNAKNTVYLQMNSLKPEDTAVYYCATGRRGTRYPRGYDYWGQGTQVTVSS | high polyreactivity

Row | Sequence | polyreactivity (PSR sort gate)
23 | QVHLVESGGGLVQAGGSLRISCAASGIIFYTYARGWYRQAPGKERELVAAISRSGGSTYYADSVKGRFTISRDNAKYTVYLQMNSRKPEDTAVDYCAADSTYRSTIQDYYWGQGTQVSVSS | high polyreactivity
24 | QVHLVESGGGLVQAGGSLRISCAASGSTFHGYAMGWYRQEPGKEMELVAAITSGDSTNYADSVKGRFTISRDNAKNTVYLQMNSLKPEDTAVYFCNAEGDSLLTGYWGYPPYWDTYDNWGQGTQVTVSS | low polyreactivity
25 | QVHLVESGGGLVQAGGSLRISCAASGSTFVYYAMGWYRQAPGTERELVAAISVSGDSTYYADSVKGRFTISRDNAKNTVYLQMNSLKPEDTAVYYCATEVYWTVSYYGYDYYGGNYYYWGQGTQVTVSS | low polyreactivity
26 | QVHLVESGGGLVQAGGSLRISCAASGYIFSYYAMGWYRQAPGKERELVASITSSGGSTYYADSVKGRFTISRDNAKNTVYLQMNSLKPEYTAEYYCNADVYDTYSPLGYYYWGQGTQVTVSS | low polyreactivity
27 | QVHLVESGGGLVQAGGSLRLICAASGFIFPRTAMGSYRQAPGKERELVAAISVSGGSTYYADSVKGRFTISRDYAKNTVYLQMNSLKPEDTAVYYCAKRTWDLRRTRHYYWGQGNQVTVSS | low polyreactivity
28 | QVHLVESGGGLVQAGGSLRLICAASGRIFTKYAMGCYRQAPGKEREVVAAISYRGGSTYYADSVKGRFTISRDNAKNTVYLQMNILKPEDTAVYYCAAYATSTRYCYWGQGTQVTVSS | high polyreactivity
29 | QVHLVESGGGLVQAGGSLRLICAASGRTFWYYAMGWYRQAPGKERELVAAITSGGSTNYADSVKRRFTISRDNAKNTVYLQMNILKPEDTAVYYCATDNPVFEYDYCGQGTQVTVSS | low polyreactivity
30 | QVHLVESGGGLVQAGGSLRLRCAASGIIFKSYAMGWYRQAPGKERELVAAITKRGGSTYYADSVKGRFTISRDNAKNTVYLQMNSLKPEDTAVYDCAADDGVGNTDDYWGQGTQVTVSS | high polyreactivity
31 | QVHLVESGGGLVQAGGSLRLRCAASGRIFPSNAMGWYRQAPWKERELVAGITWRRDSTYYADSVKGRFTISRDKAKNTVYLQMNSLKPEDTAVYYCAATFRYTKLYYWGQGTQVTVSS | low polyreactivity
32 | QVHLVESGGGLVQAGGSLRLRCAASGYPFKRNDMGWYRHAPGKETQFVPAISKSGGSTYYADSVKGRFTISRDNAKNSVYLQRNSLKPEDTAVSYCAATRGLYRYWGRDKFDYWGQGTQVTVSS | low polyreactivity
33 | QVHLVESGGGLVQAGGSLRLSCAACGSNLFVNTMGWYRQAPGKERELVAAISWIDGSTYYADSVKGRFTISRDNAKNSVYLHMNSLKPEDTAVYYCAASTYWREYDYWGQGTQVNVSS | low polyreactivity
34 | QVHLVESGGGLVQAGGSLRLSCAASASTLGSNTMGWYRQAPGKERELVATISRRGGSTYYADSVKGRFTISRDNAKYTVYLQMNSLKPADTAVYYCAARPVYKFGSWGQGTQVTVSS | high polyreactivity
35 | QVHLVESGGGLVQAGGSLRLSCAASGFIFAEYAMGWYRQEPGKERELVATINIGGSTYYADSVKGRFTISRDNAKNTVYLQMNSLKPEDTAVYYCAAEFWWGDGSQGIYDYDYWGQGSQVTVSS | low polyreactivity
36 | QVHLVESGGGLVQAGGSLRLSCAASGFIFLGNAMGGYRQAPGKERELVAAISSGGSTYADSVKGRFTISRDNAKNTVYLQMNSLKPEDTAVYYCAVDRAFRAQNYHEYDYWGQGTQVTVSS | low polyreactivity
37 | QVHLVESGGGLVQAGGSLRLSCAASGFIFRSYAMGWYRQAPGKEREFVAAITTRGTGTYYADSVKGRFTISRDNEKNTFYLQMNSLKPEDTAVYYCAARRGWGDDYWGQGTQVTVSS | high polyreactivity
38 | QVHLVESGGGLVQAGGSLRLSCAASGFNFNKYALGWYRQAPGKERELVAAITIGGSTYYADSVKGRFTISRDNAKNTVYFQMNSLKPEDTAVYYCAAVQGKVRGGYYWGQGTQVTVSS | high polyreactivity
39 | QVHLVESGGGLVQAGGSLRLSCAASGFTFDYYAMGWYRQAPGKERELVAAISWSGASTYYADSVKGRFTISRDNAKNTVYLQMNSLKPEDTAVYYCNRPKWYDGDYWGQGTQVTVSS | high polyreactivity
40 | QVHLVESGGGLVQAGGSLRLSCAASGFTFIDYAMGWYRQAPGTERELVAAITTGTITYYADSVQGRFTISRDNAKNTVYLQMNSLKPEDTAVYYCAPTYSRRGGYRMEYWGQGTQVTVSS | low polyreactivity
41 | QVHLVESGGGLVQAGGSLRLSCAASGFTFLKNAMVWNRQAPWKERELVAAITSSGGRTYYADSVKGRFTISRDNAKNTVYLQMNSLKPEDTAVYYCNKGPLPGYDYWGQGTQVTVSS | high polyreactivity
42 | QVHLVESGGGLVQAGGSLRLSCAASGFTFLTNAMGWYRQAPGKERELVAAISQSGGRTYYADSVKGRFTISRDNAKNTVYLQMNSLKPEDTAVYYCAAGVRSTGRMDYWGQGTQVTVSS | high polyreactivity
43 | QVHLVESGGGLVQAGGSLRLSCAASGFTFPYYAMGWYRQAPGKERELVATIRSGGSTYYADSVKGRFTISRDNAKNSVYLQMNSLKPEDTAVYYCAKYQGLYSYEKYGYWGQGTQVTVSS | low polyreactivity
